For experiment [1], the target named is human MET on EBC-1, NCI-H441 and NCI-H358 cells (human) (UniProt P08581). Briefly: cell binding assay on EBC-1 cells, n=1, gamma counting.
The target of another experiment is hMET.mmh (human) (UniProt P08581). Briefly: SPR Biacore T-200, antibody captured by anti-human Fc, 90 nM hMET.mmh, 25 C (second run). (SPR reads the build-up and loss of mass on a sensor chip optically.)

The substance “non-specific DFO-Ab radioimmunoconjugate (antibody)” came in with an IR (%) (immunoreactivity, percent of activity bound to cells) in experiment [1] of 2.8%.
In the experiment with hMET.mmh (human), Non-binding isotype Control (antibody) displayed an Antigen Bound of -1.46 RU/nm.
